This note sets out measurements from publication PMC6265470, “Structural, functional and biological insights into the role of Mycobacterium tuberculosis VapBC11 toxin–antitoxin system: targeting a tRNase to tackle mycobacterial adaptation” (Nucleic Acids Research, 2018).

The chains are these.
B1: VapB11 (shorter form, VapB11^6-72), (6x-His)-VapB11 (domain or fragment)
chain: MSRTNIDIDDELAAEVMRRFGLTTKRAAVDLALRRLVGSPLSREFLLGLEGVGWEGDLDDLRSDRPD
notes: Homodimer by AUC; also called antitoxin VapB11
B2: VapC11 toxin (purified alone) (enzyme)
chain: ILIDTSAWVEYFRATGSIAAVEVRRLLSEEAARIAMCEPIAMEILSGALDDNTHTTLERLVNGLPSLNVDDAIDFRAAAGIYRAARRAGETVRSINDCLIAALAIRHGARIVHRDADFDVIARITNLQAASFR
notes: VapC11 toxin (PIN domain ribonuclease) of the VapBC11 toxin-antitoxin system, Mycobacterium tuberculosis; 134 amino acids as printed; also called wild-type protein

Data set [1] deals with the molecule itself. The data set is described as follows: […] (pH 8.0), 150 mM NaCl, […].
Data set [2] addresses B2. The data set is described as follows: SPR; Biacore 3000; VapC11 immobilised on a CM5 chip (up to 750 RU); five concentrations of VapB11 injected; 10 mM HEPES (pH 7.5), 150 mM NaCl, 25°C, 20 μl/min; 1:1 Langmuir model with drifting baseline. The settings on record: both partners purified.
The data set “AUC” deals with the molecule itself. The experiment in a line: AUC.

Where “and” joins values, the source holds several entries; their conditions need not be identical. Identical values can stand only once.

A word on the stoichiometry N: it is the number of molecules, sites or subunits per partner or assembly. As a reminder, the Kd is the equilibrium constant for the complex coming apart. What is called koff is the first-order rate constant of dissociation. Read a low koff as slow dissociation. For orientation: kon means a measure of how fast the partners come together. A high value points to fast association. As for B1, the “stoichiometry N” value in data set [1] came out at 2. Further, in data set [2], the equilibrium dissociation constant (Kd) is about 0.6 nM, the koff is 0.000133 s⁻¹ and the kon came to 1.15e+06 M⁻¹ s⁻¹.

In the case of B2, the “stoichiometry N” value in the data set “AUC” is 2 and 4.
